These results are taken from the RNAGym collection of RNA variant scans (doi:10.7554/elife.80360).

B1: CPEB3 Ribozyme (parent)
chain: GGGGGCCACAGCAGAAGCGUUCACGUCGCGGCCCCUGUCAGAUUCUGGUGAAUCUGCGAAUUCUGCUGU

The variants in the data set derive from B1. Kind of data set: self-cleavage, relative activity (ratio to wild type); higher = more cleavage; co-transcriptional.
For C12A G28A, the self-cleavage was found to be 0.13. With G11U A15C, the self-cleavage worked out at 0.531. In the case of G11U A15G it was 0.779; in that of C12G C29G, 0.152; in that of G11U G50A, 0.896. As for A13C G17U, the self-cleavage was 0.125. For the variant C12A C33U, the self-cleavage was 0.671. Turning to C12A U53C, the self-cleavage came out at 0.232. As to C12A U55C, the self-cleavage amounted to 0.366. With C12U A60U, the self-cleavage came out at 0.374. In the case of G11U G41C it was 0.197; in that of C12A G25U, 0.1; in that of C12A G25A, 0.155.

Regarding C12U G56C, the self-cleavage was 0.554.

On to C12U G56U, for which the self-cleavage came out at 0.802. Regarding G11C C66U, the self-cleavage turned out to be 0.939. In the case of G11C C66G it was 0.943; in that of C12A G30C, 0.194. As to G11U U64G, the self-cleavage came to 0.447. Consider G11U U64C, for which the self-cleavage was determined as 0.498. On to G11U G25C, for which the self-cleavage was 0.0857.

Turning to C12G G14U, the self-cleavage was 0.118.

Regarding C12G G14C, the self-cleavage came out at 0.0732. In the case of C12G G14A it was 0.127; in that of G11U U38G, 0.178; in that of G11U U38A, 0.687.

Regarding G11U U69C, the self-cleavage stood at 1.05.

In the case of G11C G30U, the self-cleavage is 0.225. In the case of G11U U55A it was 0.36. With G11U U55C, the self-cleavage turned out to be 0.302. Consider C12A A42U, for which the self-cleavage turned out to be 0.402.

Take G11C U55A: the self-cleavage came out at 0.271. With G11C U55G the figure was 0.165; with G11U A60U, 0.281.

For the variant G11U A60G, the self-cleavage was found to be 0.497. With G11U A60C the figure was 0.234. G11C U49G: the self-cleavage was determined as 0.866. Regarding G11C U49C, the self-cleavage is 0.803. As to C12A U49C, the self-cleavage was 0.73. With C12G G30U the figure was 0.26; with C12G G30A, 0.43; with C12A G65C, 0.841. In the case of G11U A52C it was 0.761; in that of G11U A52U, 0.851; in that of A13C G68U, 0.892. With G11C G58C the figure was 0.751; with G11C G58U, 0.896. With C12G U20C, the self-cleavage is 0.119. With G11C C63U the figure was 0.416. In the case of G11U G14A, the self-cleavage is 0.131. Turning to C12A A23C, the self-cleavage stood at 0.6.

With G11C U44C, the self-cleavage is 0.459. Take G11C U44G: the self-cleavage worked out at 0.662. With G11U U26G the figure was 0.635; with C12U C35G, 0.45. With C12U C35U the figure was 0.947. With C12U C35A the figure was 0.275; with C12G G28U, 0.11.

On to G11C A13G, for which the self-cleavage stood at 0.558. With G11C A13U the figure was 0.209; with G11C A13C, 0.175; with A13C G47A, 0.922. For G11U C32A, the self-cleavage stood at 0.773.

In the case of C12G U49C, the self-cleavage stood at 0.827. In the case of C12G U49A it was 0.934; in that of C12U U44G, 0.866; in that of C12U U44A, 0.954.

For the variant C12A C66U, the self-cleavage turned out to be 0.723. As to G11U C45G, the self-cleavage is 0.772.

Take G11C A15G: the self-cleavage turned out to be 0.627. With C12A U38C the figure was 0.516.

For C12A U38A, the self-cleavage was 0.493.

On to A13C U20G, for which the self-cleavage was 0.089. In the case of A13C G65U it was 0.41; in that of G11C C18G, 0.0784. With C12U G14U the figure was 0.345.

As to C12U G14C, the self-cleavage turned out to be 0.146. Regarding C12A U36A, the self-cleavage is 0.194.

Regarding C12A U36G, the self-cleavage is 0.154. With G11C G25U the figure was 0.0946. With C12A U69G the figure was 0.925; with C12U G68C, 1.01. With C12A C27G, the self-cleavage stood at 0.171. For G11U G47U, the self-cleavage is 0.941. With A13C A52G the figure was 0.823. For the variant G11U G28A, the self-cleavage turned out to be 0.125. As to C12G G37C, the self-cleavage is 0.205. With C12G G37U the figure was 0.223; with G11C U69C, 1.01. In the case of G11C U69G it was 0.97.

As to G11C U69A, the self-cleavage stood at 0.921. In the case of C12U G19U it was 0.339; in that of C12A C18A, 0.139; in that of C12A C54U, 0.688.

Take A13C C33G: the self-cleavage stood at 0.231. As for A13C C33U, the self-cleavage is 0.774. Turning to G11C A59G, the self-cleavage came out at 0.718. In the case of C12U G30C, the self-cleavage is 0.67. In the case of C12U G30U it was 0.368; in that of C12U C63A, 0.56.

For C12U C63U, the self-cleavage came to 0.898. As to A13C C57G, the self-cleavage came to 0.235. With A13C C57U, the self-cleavage was 0.248.

Regarding G11C U61C, the self-cleavage is 0.203. For the variant C12G U67C, the self-cleavage turned out to be 0.917. Regarding C12G G68C, the self-cleavage turned out to be 0.832. In the case of C12G G68A it was 0.972. On to C12U U46G, for which the self-cleavage turned out to be 1. With C12A G41A the figure was 0.213. Consider C12G U64C, for which the self-cleavage worked out at 0.566.

Consider C12G U64G, for which the self-cleavage was 0.395.

For A13C G30A, the self-cleavage was 0.497. On to G11C C12U, for which the self-cleavage worked out at 0.452.

As to G11C C12G, the self-cleavage amounted to 0.211.

With C12A G58A, the self-cleavage was 0.62. In the case of G11C G50C it was 0.748; in that of G11U G48A, 0.917.

For G11U G48U, the self-cleavage is 0.939.

As to C12U A23C, the self-cleavage turned out to be 0.93. In the case of C12U C33G it was 0.656; in that of C12U C33A, 0.924. Take A13C A40G: the self-cleavage was 0.738. On to C12A U64A, for which the self-cleavage was 0.582.

On to C12A U64C, for which the self-cleavage came out at 0.58. With G11C U20G, the self-cleavage turned out to be 0.169. In the case of A13C U36A it was 0.175; in that of A13C U36G, 0.201; in that of C12G U38C, 0.745. In the case of C12A A16U it was 0.27; in that of C12G A59U, 0.4. As to C12G G41C, the self-cleavage came to 0.416. Turning to C12G G41U, the self-cleavage came out at 0.377.

Turning to A13C C22A, the self-cleavage is 0.0721. With A13C C22G, the self-cleavage turned out to be 0.149. In the case of G11C U21A it was 0.827; in that of C12U A40U, 0.643; in that of G11C U43G, 0.279. On to A13C, for which the self-cleavage was determined as 0.913. Consider G11C A42C, for which the self-cleavage stood at 0.151. With C12G C35A the figure was 0.326.

For C12G C35G, the self-cleavage came to 0.369. With C12A U21G the figure was 0.0774; with G11C G41C, 0.257; with G11C G41U, 0.238. With C12U C66G the figure was 0.556; with C12U C66U, 0.798; with A13C U43C, 0.685. With C12G A16U the figure was 0.486; with C12G A16C, 0.177. Regarding C12A A13U, the self-cleavage came out at 0.15. With C12U G41C the figure was 0.617; with C12U G41A, 0.716. As to C12G C39A, the self-cleavage amounted to 0.484. As for C12G C34G, the self-cleavage is 0.69. With G11C G48U the figure was 0.912; with C12U U36C, 0.892. For the variant C12G U44A, the self-cleavage is 0.727.

Turning to C12U U62C, the self-cleavage was 0.511. With C12U C45U the figure was 1.01. With C12U C45G the figure was 0.98; with G11C C45G, 0.767; with G11C G17A, 0.103. In the case of C12U C24U, the self-cleavage came to 0.805. In the case of C12U C24A it was 0.713; in that of C12U C24G, 0.316; in that of G11C G31U, 0.536. With G11C G31C the figure was 0.167.
